Measurements as given in the supplement of paper PMC11136658.

Test system: peptide library, one residue held at a place counted from the Y acceptor
Assay: relative phosphorylation of the sub-library (ratio to the mean residue at this position); higher = residue favoured
Summary of the method: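 Every value reflects phosphorylation relative to the mean randomized residue. The sum of the 18 randomized residues, or 16 in the Ser/Thr-free library, served to normalize intensities at each position, which were then multiplied by that number. Intensities came from phosphorimaging with ImageQuant of biotinylated Tyr-centred peptides captured on streptavidin membranes after 90 min with purified recombinant kinases and 50 μM ATP plus γ-32P-ATP.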

Chain of PDHK1, construct: Full length, human (Q15118 whole entry, looked up): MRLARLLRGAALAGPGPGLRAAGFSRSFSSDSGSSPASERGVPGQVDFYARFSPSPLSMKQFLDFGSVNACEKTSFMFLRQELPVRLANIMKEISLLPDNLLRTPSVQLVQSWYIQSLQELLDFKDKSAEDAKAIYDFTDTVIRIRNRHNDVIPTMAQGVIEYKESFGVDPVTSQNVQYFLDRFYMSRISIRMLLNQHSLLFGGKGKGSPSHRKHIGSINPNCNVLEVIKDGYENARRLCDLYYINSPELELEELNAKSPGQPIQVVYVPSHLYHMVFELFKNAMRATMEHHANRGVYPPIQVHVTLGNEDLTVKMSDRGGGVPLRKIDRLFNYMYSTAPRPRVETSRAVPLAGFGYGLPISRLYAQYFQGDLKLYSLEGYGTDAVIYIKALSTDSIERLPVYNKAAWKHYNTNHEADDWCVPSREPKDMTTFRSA

PDHK1, construct: Full length, human (from UniProt Q15118)
relative phosphorylation
Conditions	at +1	at +2	at +3	at +4	at +5	at -1	at -2	at -3	at -4	at -5
A fixed	0.893	0.682	0.8	0.868	0.717	0.76	1.54	0.847	0.895	0.845
D fixed	1.27	1.58	1.3	1.3	1.52	1.58	1.19	1.2	1.32	1.24
E fixed	1.12	1.17	1.41	1.16	1.27	1.96	1.24	1.06	1.26	1.34
F fixed	0.897	1.29	0.991	0.899	0.97	0.627	0.764	0.933	1.06	1.01
G fixed	1.04	0.92	1.02	1.16	1.1	0.971	1.17	1.03	1.06	0.973
H fixed	1.2	1.02	1.03	1.17	1.08	0.937	0.903	1.01	1	1.14
I fixed	0.779	0.704	0.862	0.895	0.845	0.938	0.71	0.72	0.755	0.844
K fixed	0.785	0.938	0.809	0.891	0.784	0.819	0.827	0.912	0.865	0.974
L fixed	0.844	0.863	0.78	0.907	0.838	0.888	0.72	0.93	0.881	0.906
M fixed	1.18	0.882	1.03	0.911	0.873	0.794	0.826	0.843	0.914	0.837
N fixed	1.1	1.02	1.01	0.982	1.04	1.03	1.01	1.01	0.997	1.03
P fixed	0.925	1.1	0.981	1.16	0.898	0.974	1.73	1.06	0.91	0.945
Q fixed	0.986	0.997	1.02	0.986	0.992	0.983	0.863	1.19	1.18	0.977
R fixed	0.822	0.851	0.899	0.819	0.863	0.744	0.818	0.976	0.891	0.935
V fixed	0.739	0.707	0.766	0.718	0.747	1.03	0.758	0.802	0.759	0.702
W fixed	1.41	1.27	1.3	1.18	1.47	0.96	0.934	1.48	1.26	1.3
pThr fixed	1.42	1.51	1.34	1.12	1.01	1.72	1.35	1.53	1.52	1.45
pTyr fixed	1.23	1.36	1.41	1.14	1.31	1.71	1.63	1.64	1.36	1.47
